Data reported in patent US20130005646A1 (Novo Nordisk, published 2013).
Starred links: 1 amine or outer side, 2 acyl side, 3 side chain; linkers in the order of their positions; H or OH if unused. Positions of bridges follow the written chain, without caps; N, C: chain ends. *: point of attachment. C20 diacid = O=C(O)CCCCCCCCCCCCCCCCCCC(=O)*; γGlu = O=C(O)[C@H](CCC(=O)[*:2])N[*:1]

Assays:
Assay in all cases: cell-based or functional assay
[1] = molecular target: T1, rat amylin 3(a) receptor (rat calcitonin(a) receptor + rat RAMP3) (rat, UniProt P32214 25-516; Q9JJ73 23-147)
T1 sequence (looked up) 1: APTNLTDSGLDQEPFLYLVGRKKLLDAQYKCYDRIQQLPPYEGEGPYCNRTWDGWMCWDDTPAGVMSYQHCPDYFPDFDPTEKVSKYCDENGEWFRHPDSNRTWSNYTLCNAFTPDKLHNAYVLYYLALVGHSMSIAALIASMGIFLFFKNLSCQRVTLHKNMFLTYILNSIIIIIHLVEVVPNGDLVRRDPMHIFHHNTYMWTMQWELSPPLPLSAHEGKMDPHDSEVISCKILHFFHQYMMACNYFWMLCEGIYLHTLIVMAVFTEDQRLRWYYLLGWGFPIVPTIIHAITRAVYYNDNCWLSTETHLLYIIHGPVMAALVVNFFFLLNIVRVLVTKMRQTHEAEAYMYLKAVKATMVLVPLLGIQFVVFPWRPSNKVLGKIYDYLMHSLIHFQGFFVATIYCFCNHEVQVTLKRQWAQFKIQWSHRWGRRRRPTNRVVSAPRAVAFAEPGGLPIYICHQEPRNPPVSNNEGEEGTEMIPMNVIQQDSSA
T1 sequence (looked up) 2: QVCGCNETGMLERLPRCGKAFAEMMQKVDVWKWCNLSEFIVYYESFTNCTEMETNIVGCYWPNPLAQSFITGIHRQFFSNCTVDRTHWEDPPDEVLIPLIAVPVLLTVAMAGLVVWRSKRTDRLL

[2] = molecular target: T2, rat calcitonin (a) receptor (rat, UniProt P32214 25-516)
T2 sequence (looked up): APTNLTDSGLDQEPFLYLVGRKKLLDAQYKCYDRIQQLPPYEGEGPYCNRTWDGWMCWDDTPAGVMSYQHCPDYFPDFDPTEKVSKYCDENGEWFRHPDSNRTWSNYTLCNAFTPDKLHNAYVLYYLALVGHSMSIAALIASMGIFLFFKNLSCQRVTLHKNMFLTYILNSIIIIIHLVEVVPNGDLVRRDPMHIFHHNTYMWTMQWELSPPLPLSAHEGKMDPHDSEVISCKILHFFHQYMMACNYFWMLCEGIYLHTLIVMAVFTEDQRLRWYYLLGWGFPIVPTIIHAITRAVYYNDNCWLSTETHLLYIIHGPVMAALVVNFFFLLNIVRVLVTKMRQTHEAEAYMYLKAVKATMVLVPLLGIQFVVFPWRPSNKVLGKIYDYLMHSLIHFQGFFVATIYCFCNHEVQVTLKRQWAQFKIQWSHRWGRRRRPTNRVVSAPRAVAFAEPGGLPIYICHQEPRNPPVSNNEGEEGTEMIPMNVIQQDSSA

[3] = molecular target: T3, human amylin 3(a) receptor (human calcitonin receptor + RAMP-3) (human, UniProt P30988 25-474; O60896 24-148)
T3 sequence (looked up) 1: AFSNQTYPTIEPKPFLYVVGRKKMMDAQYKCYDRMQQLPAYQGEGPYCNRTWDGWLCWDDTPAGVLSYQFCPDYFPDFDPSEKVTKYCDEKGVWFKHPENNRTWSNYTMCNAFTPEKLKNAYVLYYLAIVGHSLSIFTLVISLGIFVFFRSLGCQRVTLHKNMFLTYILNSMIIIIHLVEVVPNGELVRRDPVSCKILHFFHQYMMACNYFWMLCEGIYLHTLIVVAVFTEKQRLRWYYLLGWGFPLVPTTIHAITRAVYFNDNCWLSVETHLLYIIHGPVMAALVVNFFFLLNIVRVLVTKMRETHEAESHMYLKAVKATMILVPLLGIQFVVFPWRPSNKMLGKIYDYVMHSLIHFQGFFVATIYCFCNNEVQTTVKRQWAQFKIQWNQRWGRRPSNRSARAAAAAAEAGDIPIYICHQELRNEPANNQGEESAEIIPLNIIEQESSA
T3 sequence (looked up) 2: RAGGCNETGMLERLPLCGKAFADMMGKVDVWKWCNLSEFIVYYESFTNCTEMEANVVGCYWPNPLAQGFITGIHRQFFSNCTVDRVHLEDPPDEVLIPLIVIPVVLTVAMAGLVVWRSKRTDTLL

[4] = molecular target: T4, human calcitonin (a) receptor (human, UniProt P30988 25-474)
T4 sequence (looked up): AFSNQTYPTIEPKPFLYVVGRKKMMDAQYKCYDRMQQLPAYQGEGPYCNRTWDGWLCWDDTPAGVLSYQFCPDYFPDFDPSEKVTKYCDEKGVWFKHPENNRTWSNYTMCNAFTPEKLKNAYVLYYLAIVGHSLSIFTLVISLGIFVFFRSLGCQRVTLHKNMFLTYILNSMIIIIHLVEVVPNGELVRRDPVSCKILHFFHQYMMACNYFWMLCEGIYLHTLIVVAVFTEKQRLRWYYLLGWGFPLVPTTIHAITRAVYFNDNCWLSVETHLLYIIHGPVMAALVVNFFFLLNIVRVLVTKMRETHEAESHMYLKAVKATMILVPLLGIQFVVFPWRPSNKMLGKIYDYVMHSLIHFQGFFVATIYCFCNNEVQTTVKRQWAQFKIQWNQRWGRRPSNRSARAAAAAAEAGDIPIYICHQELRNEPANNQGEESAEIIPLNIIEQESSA

Amylin receptor rat EC50 [1]: 4.51 nM
CTa receptor rat EC50 [2]: 1.75 nM
Amylin receptor human EC50 [3]: 1.44 nM
CTa receptor human EC50 [4]: 0.672 nM
B1: N-alpha-[(S)-4-Carboxy-4-(19-carboxynonadecanoylamino)butyryl]-[Glu1,Gly3,Glu14,Arg18,Ser21,Ser22,Ala25,Pro26,Ser28,Ser29,Glu31,Arg35]-pramlintide (peptide)
peptide: {C20 diacid-γGlu}-ECGTATCATQRLAEFLVRSSSSFGAPLSSTEVGSRTY-NH2
modifications: disulfide 2-7
SMILES: CC(C)C[C@H](NC(=O)[C@H](CCCNC(=N)N)NC(=O)[C@H](CCC(N)=O)NC(=O)[C@@H](NC(=O)[C@H](C)NC(=O)[C@@H]1CSSC[C@H](NC(=O)[C@H](CCC(=O)O)NC(=O)CC[C@H](NC(=O)CCCCCCCCCCCCCCCCCCC(=O)O)C(=O)O)C(=O)NCC(=O)N[C@@H]([C@@H](C)O)C(=O)N[C@@H](C)C(=O)N[C@@H]([C@@H](C)O)C(=O)N1)[C@@H](C)O)C(=O)N[C@@H](C)C(=O)N[C@@H](CCC(=O)O)C(=O)N[C@@H](Cc1ccccc1)C(=O)N[C@@H](CC(C)C)C(=O)N[C@H](C(=O)N[C@@H](CCCNC(=N)N)C(=O)N[C@@H](CO)C(=O)N[C@@H](CO)C(=O)N[C@@H](CO)C(=O)N[C@@H](CO)C(=O)N[C@@H](Cc1ccccc1)C(=O)NCC(=O)N[C@@H](C)C(=O)N1CCC[C@H]1C(=O)N[C@@H](CC(C)C)C(=O)N[C@@H](CO)C(=O)N[C@@H](CO)C(=O)N[C@H](C(=O)N[C@@H](CCC(=O)O)C(=O)N[C@H](C(=O)NCC(=O)N[C@@H](CO)C(=O)N[C@@H](CCCNC(=N)N)C(=O)N[C@H](C(=O)N[C@@H](Cc1ccc(O)cc1)C(N)=O)[C@@H](C)O)C(C)C)[C@@H](C)O)C(C)C
